In publication PMC11650997 (Journal of Virology, 2024):

B1: pT1616 (human monoclonal antibody, IgG1) (antibody, V domains shown)
VH: QVQLVQSGAEVKKPGSSVKVSCKASGGTFSSYTISWVRQAPGQGLECMGRIIPILGIANYAQKFQGRVTITADKSTSIAYMEVSSLRSEDTAVYYCATEVGYSGYGSAEYFNHWGQGTPVTVSS
VL: QSVLTQPPSVSGAPGQRVTISCTGSNSNIGAGYDVHWYQQLPGTAPKLLIYANNNRPSGVPDRFSGSRSGTSASLVITGLQADDEADYYCQSYDSSLTGSLFGGGTKLTVL
notes: also called bnAb pT1616; nAb pT1616; source: HEK293ExPi, transfected, purified from the supernatant (Protein G, SEC)
B2: pT1616 IgG1 (antibody, V domains shown)
VH: B1 VH
VL: B1 VL
notes: also called bnAb pT1616; nAb pT1616; source: HEK293ExPi, transfected, purified from supernatant (Protein G, SEC)

How the values were obtained:
Details in all cases: both partners purified
[1] = molecular target: T1, SARS-CoV-2 RBD (aa 334-527) (Severe acute respiratory syndrome …, UniProt P0DTC2); test: SPR
T1 construct: also called recombinant RBD; monomeric RBD

[2] = molecular target: T2, HKU3-1 S protein ectodomain (Bat SARS coronavirus HKU3-1 (DQ022305), UniProt Q3LZX1); test: ELISA; […], room temperature; […]
T2 construct: source: Drosophila S2 cells, secreted, purified (Strep-Tactin XT, Superose 6 SEC)

[3] = molecular target: T3, BM48-31 S protein ectodomain (Bat coronavirus BM48-31/BGR/2008 …); test: ELISA; […], room temperature; […]
T3 construct: also called sarbecovirus BM48-31 S protein

[4] = molecular target: WIV-1 S protein ectodomain (Bat SARS-like coronavirus WIV1 …, UniProt U5WI05); test: ELISA; […], room temperature; […]
[5] = molecular target: RsSHC014 S protein ectodomain (Bat SARS-like coronavirus RsSHC014 …, UniProt U5WLK5); test: ELISA; […], room temperature; […]
[6] = molecular target: CoVZC45 S protein ectodomain (Bat SARS-like coronavirus CoVZC45 …, UniProt A0A2R3SUW7); test: ELISA; […], room temperature; […]
[7] = molecular target: RaTG13 S protein ectodomain (Bat coronavirus RaTG13 (MN996532), UniProt A0ABF7PLN6); test: ELISA; […], room temperature; […]

| Binder | Kd [1] [nM] | koff [1] [s⁻¹] | kon [1] [M⁻¹ s⁻¹] | binding result [2] | binding result [3] | binding result [4] | binding result [5] | binding result [6] | binding result [7] |
| --- | --- | --- | --- | --- | --- | --- | --- | --- | --- |
| B1 | 0.24 | 0.00019 | 780000 |  |  |  |  |  |  |
| B2 |  |  |  | binds | no binding (tested: 2 µg/mL antibody) | binds | binds | binds | binds |
